Experimental data from US20230331827A1, “POTASSIUM CHANNEL INHIBITORS” (priority 2017, published 2023).

B1: KB_A12 scFv-Fc displayed on HEK293 cells (Fc fusion)
VH: EVQLVESGGGLVRPGGSLRLSCAASGFTFSSYAMSWVRQAPGKGLEWVSAISGSGGSTYYADSVKGRFTISRDNTKNSLYLQMTSLRADDTAFYYCVKDFGPGYGTGWFDYWGPGTLVTVSS
VL: QSVLTQPPSVSEAPRQRVTITCSGSSSNIGNNAVNWYQQLPGKAPKLLIYAAGRCPRILMRCKQDSDCLAGCVCGPNGFCGANSGVSDRFSAAKSGTSASLAINGLRSEDEADYYCAAWDDSLNGYVFGTGTKLTVLGQP
B2: KB_A01 GlyAla mutant (scFv on phage) (scFv, V domains shown)
VH: B1 VH
VL: YLNWYQQKPGKAPKLLIYAAEVCGAILMRCKQDSDCLAGCVCGPNGFCGGTSGVPSRFSGSRSGTEFTLTISSLQPEDFATYYCQKVDDYPLTFGGGTKVEIKR
B3: KB_A11 GlyAla mutant (scFv on phage) (scFv, V domains shown)
VH: B1 VH
VL: YLNWYQQKPGKAPKLLIYAAEICGAILMRCKQDSDCLAGCVCGPNGFCGPSSGIPARFSGSGYGTDFTLTINNIESEDAAYYFCLQHDNFPYTFGQGTKVEIKR

Assays:
trypsin [1] = experiment: flow cytometry of HEK293 cells displaying the scFv-Fc, 15 days post transfection after blasticidin selection; untransfected cells (panel C): Q2 0.043
trypsin [2] = experiment: flow cytometry, biotinylated trypsin/streptavidin-APC
trypsin [3] = experiment: phage TRF, GlyAla mutant against parent clone

Binder | Q2, share of cells stained by both anti-Fc-PE (FL2) and biotinylated trypsin/streptavidin-APC (FL4) (trypsin [1]) | % of transfected HEK293 cells dual stained for Fc and trypsin (trypsin [2]) | % reduction in binding signal (trypsin [3])
B1 | 11.2% | 11% | 
B2 |  |  | 93%
B3 |  |  | 100%
